Experimental data taken from article PMC6018948.

How the values were obtained:
ARR1 = target: T1, ARR1 (UniProt Q940D0 1-690); assay: competition
T1 sequence: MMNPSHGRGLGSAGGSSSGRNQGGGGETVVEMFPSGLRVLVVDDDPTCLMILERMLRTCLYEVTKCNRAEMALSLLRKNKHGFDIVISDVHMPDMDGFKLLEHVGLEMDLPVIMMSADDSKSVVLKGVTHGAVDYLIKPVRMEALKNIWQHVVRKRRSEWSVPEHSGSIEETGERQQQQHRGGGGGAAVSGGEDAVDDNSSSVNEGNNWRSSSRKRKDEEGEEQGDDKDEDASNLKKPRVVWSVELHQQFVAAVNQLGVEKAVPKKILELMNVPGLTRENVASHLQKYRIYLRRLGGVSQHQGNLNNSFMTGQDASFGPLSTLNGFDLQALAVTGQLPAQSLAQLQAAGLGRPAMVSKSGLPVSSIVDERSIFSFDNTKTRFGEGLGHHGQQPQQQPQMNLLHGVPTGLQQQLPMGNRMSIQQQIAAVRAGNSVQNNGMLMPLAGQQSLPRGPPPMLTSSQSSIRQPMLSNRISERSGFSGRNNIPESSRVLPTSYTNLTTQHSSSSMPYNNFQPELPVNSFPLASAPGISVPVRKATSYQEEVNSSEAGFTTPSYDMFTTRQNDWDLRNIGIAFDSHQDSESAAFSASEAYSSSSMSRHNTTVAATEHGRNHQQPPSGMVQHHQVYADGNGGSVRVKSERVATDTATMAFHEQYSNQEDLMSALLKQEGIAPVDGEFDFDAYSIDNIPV

ARR10 = target: T2, ARR10 (UniProt O49397 1-552); assay: competition
T2 sequence: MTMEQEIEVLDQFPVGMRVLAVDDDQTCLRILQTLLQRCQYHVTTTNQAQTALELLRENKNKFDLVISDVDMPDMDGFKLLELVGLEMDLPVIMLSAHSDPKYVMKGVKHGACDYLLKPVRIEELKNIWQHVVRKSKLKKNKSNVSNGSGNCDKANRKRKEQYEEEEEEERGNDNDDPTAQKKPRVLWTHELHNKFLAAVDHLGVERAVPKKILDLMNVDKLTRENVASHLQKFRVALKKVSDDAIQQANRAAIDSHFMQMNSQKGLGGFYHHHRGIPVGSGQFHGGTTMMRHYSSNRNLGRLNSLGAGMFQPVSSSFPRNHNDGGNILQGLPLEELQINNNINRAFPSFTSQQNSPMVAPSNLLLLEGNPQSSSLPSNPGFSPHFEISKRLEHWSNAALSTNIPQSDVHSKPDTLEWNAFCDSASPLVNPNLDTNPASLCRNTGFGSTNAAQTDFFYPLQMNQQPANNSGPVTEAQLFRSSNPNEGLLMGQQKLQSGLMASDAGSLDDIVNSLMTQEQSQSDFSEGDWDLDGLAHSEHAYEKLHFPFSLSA

B1: AG mutated competitor (dsDNA)
DNA 1: TTTAAAGCAATGGTTACAATTTTAATACTATCAAATGTCTATTGCTTTTA
DNA 2: TAAAAGCAATAGACATTTGATAGTATTAAAATTGTAACCATTGCTTTAAA
ARR1
  binding result: no binding
ARR10
  binding result: no binding
